Assay results: patent US12679878B2, “CRF2 receptor agonists and their use in therapy” (SANOFI, priority 2020, dated 2026)
Starred links: 1 amine or outer side, 2 acyl side, 3 side chain; linkers in the order of their positions; H or OH if unused. Non-standard residues stand in square brackets, D forms with d. Groups on a side chain read outwards from the residue. No end group written: not given here. *: point of attachment. C18 diacid = O=C(O)CCCCCCCCCCCCCCCCC(=O)*; γGlu = O=C(O)[C@H](CCC(=O)[*:2])N[*:1]; Palmitoyl = CCCCCCCCCCCCCCCC(=O)*; AEEA = NCCOCCOCC(=O)O; Aib = CC(C)(N)C(=O)O

B1: SEQ ID NO: 140 (peptide)
peptide: IVLSLD[dV]PIKLK([AEEA-AEEA-γGlu-C18 diacid])QILLEQARQK[Aib]QRAQAEKNKRILERV-NH2
modifications: N-terminus assumed
SMILES: CC[C@H](C)[C@H](N)C(=O)N[C@H](C(=O)N[C@@H](CC(C)C)C(=O)N[C@@H](CO)C(=O)N[C@@H](CC(C)C)C(=O)N[C@@H](CC(=O)O)C(=O)N[C@@H](C(=O)N1CCC[C@H]1C(=O)N[C@H](C(=O)N[C@@H](CCCCN)C(=O)N[C@@H](CC(C)C)C(=O)N[C@@H](CCCCNC(=O)COCCOCCNC(=O)COCCOCCNC(=O)CC[C@H](NC(=O)CCCCCCCCCCCCCCCCC(=O)O)C(=O)O)C(=O)N[C@@H](CCC(N)=O)C(=O)N[C@H](C(=O)N[C@@H](CC(C)C)C(=O)N[C@@H](CC(C)C)C(=O)N[C@@H](CCC(=O)O)C(=O)N[C@@H](CCC(N)=O)C(=O)N[C@@H](C)C(=O)N[C@@H](CCCNC(=N)N)C(=O)N[C@@H](CCC(N)=O)C(=O)N[C@@H](CCCCN)C(=O)NC(C)(C)C(=O)N[C@@H](CCC(N)=O)C(=O)N[C@@H](CCCNC(=N)N)C(=O)N[C@@H](C)C(=O)N[C@@H](CCC(N)=O)C(=O)N[C@@H](C)C(=O)N[C@@H](CCC(=O)O)C(=O)N[C@@H](CCCCN)C(=O)N[C@@H](CC(N)=O)C(=O)N[C@@H](CCCCN)C(=O)N[C@@H](CCCNC(=N)N)C(=O)N[C@H](C(=O)N[C@@H](CC(C)C)C(=O)N[C@@H](CCC(=O)O)C(=O)N[C@@H](CCCNC(=N)N)C(=O)N[C@H](C(N)=O)C(C)C)[C@@H](C)CC)[C@@H](C)CC)[C@@H](C)CC)C(C)C)C(C)C
B2: SEQ ID NO: 139 (peptide)
peptide: IVLSLD[dV]PIKLK([AEEA-AEEA-γGlu-C18 diacid])QILLKQERQKKQRQQAEKNKQILAQV-NH2
modifications: N-terminus assumed
SMILES: CC[C@H](C)[C@H](N)C(=O)N[C@H](C(=O)N[C@@H](CC(C)C)C(=O)N[C@@H](CO)C(=O)N[C@@H](CC(C)C)C(=O)N[C@@H](CC(=O)O)C(=O)N[C@@H](C(=O)N1CCC[C@H]1C(=O)N[C@H](C(=O)N[C@@H](CCCCN)C(=O)N[C@@H](CC(C)C)C(=O)N[C@@H](CCCCNC(=O)COCCOCCNC(=O)COCCOCCNC(=O)CC[C@H](NC(=O)CCCCCCCCCCCCCCCCC(=O)O)C(=O)O)C(=O)N[C@@H](CCC(N)=O)C(=O)N[C@H](C(=O)N[C@@H](CC(C)C)C(=O)N[C@@H](CC(C)C)C(=O)N[C@@H](CCCCN)C(=O)N[C@@H](CCC(N)=O)C(=O)N[C@@H](CCC(=O)O)C(=O)N[C@@H](CCCNC(=N)N)C(=O)N[C@@H](CCC(N)=O)C(=O)N[C@@H](CCCCN)C(=O)N[C@@H](CCCCN)C(=O)N[C@@H](CCC(N)=O)C(=O)N[C@@H](CCCNC(=N)N)C(=O)N[C@@H](CCC(N)=O)C(=O)N[C@@H](CCC(N)=O)C(=O)N[C@@H](C)C(=O)N[C@@H](CCC(=O)O)C(=O)N[C@@H](CCCCN)C(=O)N[C@@H](CC(N)=O)C(=O)N[C@@H](CCCCN)C(=O)N[C@@H](CCC(N)=O)C(=O)N[C@H](C(=O)N[C@@H](CC(C)C)C(=O)N[C@@H](C)C(=O)N[C@@H](CCC(N)=O)C(=O)N[C@H](C(N)=O)C(C)C)[C@@H](C)CC)[C@@H](C)CC)[C@@H](C)CC)C(C)C)C(C)C
B3: SEQ ID NO: 14 (peptide)
peptide: FTLSLDVPTKIK([γGlu-Palmitoyl])QKLLKQEKQRKQKQKAKTNAKILARV-NH2
modifications: N-terminus assumed
SMILES: CCCCCCCCCCCCCCCC(=O)N[C@@H](CCC(=O)NCCCC[C@H](NC(=O)[C@@H](NC(=O)[C@H](CCCCN)NC(=O)[C@@H](NC(=O)[C@@H]1CCCN1C(=O)[C@@H](NC(=O)[C@H](CC(=O)O)NC(=O)[C@H](CC(C)C)NC(=O)[C@H](CO)NC(=O)[C@H](CC(C)C)NC(=O)[C@@H](NC(=O)[C@@H](N)Cc1ccccc1)[C@@H](C)O)C(C)C)[C@@H](C)O)[C@@H](C)CC)C(=O)N[C@@H](CCC(N)=O)C(=O)N[C@@H](CCCCN)C(=O)N[C@@H](CC(C)C)C(=O)N[C@@H](CC(C)C)C(=O)N[C@@H](CCCCN)C(=O)N[C@@H](CCC(N)=O)C(=O)N[C@@H](CCC(=O)O)C(=O)N[C@@H](CCCCN)C(=O)N[C@@H](CCC(N)=O)C(=O)N[C@@H](CCCNC(=N)N)C(=O)N[C@@H](CCCCN)C(=O)N[C@@H](CCC(N)=O)C(=O)N[C@@H](CCCCN)C(=O)N[C@@H](CCC(N)=O)C(=O)N[C@@H](CCCCN)C(=O)N[C@@H](C)C(=O)N[C@@H](CCCCN)C(=O)N[C@H](C(=O)N[C@@H](CC(N)=O)C(=O)N[C@@H](C)C(=O)N[C@@H](CCCCN)C(=O)N[C@H](C(=O)N[C@@H](CC(C)C)C(=O)N[C@@H](C)C(=O)N[C@@H](CCCNC(=N)N)C(=O)N[C@H](C(N)=O)C(C)C)[C@@H](C)CC)[C@@H](C)O)C(=O)O
B4: SEQ ID NO: 141 (peptide)
peptide: IVLSLD[dV]PIKLK([AEEA-AEEA-γGlu-C18 diacid])QILLKQARQK[Aib]QRAQAEKNKRILERV-NH2
modifications: N-terminus assumed
SMILES: CC[C@H](C)[C@H](N)C(=O)N[C@H](C(=O)N[C@@H](CC(C)C)C(=O)N[C@@H](CO)C(=O)N[C@@H](CC(C)C)C(=O)N[C@@H](CC(=O)O)C(=O)N[C@@H](C(=O)N1CCC[C@H]1C(=O)N[C@H](C(=O)N[C@@H](CCCCN)C(=O)N[C@@H](CC(C)C)C(=O)N[C@@H](CCCCNC(=O)COCCOCCNC(=O)COCCOCCNC(=O)CC[C@H](NC(=O)CCCCCCCCCCCCCCCCC(=O)O)C(=O)O)C(=O)N[C@@H](CCC(N)=O)C(=O)N[C@H](C(=O)N[C@@H](CC(C)C)C(=O)N[C@@H](CC(C)C)C(=O)N[C@@H](CCCCN)C(=O)N[C@@H](CCC(N)=O)C(=O)N[C@@H](C)C(=O)N[C@@H](CCCNC(=N)N)C(=O)N[C@@H](CCC(N)=O)C(=O)N[C@@H](CCCCN)C(=O)NC(C)(C)C(=O)N[C@@H](CCC(N)=O)C(=O)N[C@@H](CCCNC(=N)N)C(=O)N[C@@H](C)C(=O)N[C@@H](CCC(N)=O)C(=O)N[C@@H](C)C(=O)N[C@@H](CCC(=O)O)C(=O)N[C@@H](CCCCN)C(=O)N[C@@H](CC(N)=O)C(=O)N[C@@H](CCCCN)C(=O)N[C@@H](CCCNC(=N)N)C(=O)N[C@H](C(=O)N[C@@H](CC(C)C)C(=O)N[C@@H](CCC(=O)O)C(=O)N[C@@H](CCCNC(=N)N)C(=O)N[C@H](C(N)=O)C(C)C)[C@@H](C)CC)[C@@H](C)CC)[C@@H](C)CC)C(C)C)C(C)C

Molecular target: human corticotropin-releasing factor 2α (CRF2 α receptor) (human), Q13324
Assay: cell-based or functional assay

Chain of human corticotropin-releasing factor 2α (CRF2 α receptor) (human), Q13324 (Q13324 20-411): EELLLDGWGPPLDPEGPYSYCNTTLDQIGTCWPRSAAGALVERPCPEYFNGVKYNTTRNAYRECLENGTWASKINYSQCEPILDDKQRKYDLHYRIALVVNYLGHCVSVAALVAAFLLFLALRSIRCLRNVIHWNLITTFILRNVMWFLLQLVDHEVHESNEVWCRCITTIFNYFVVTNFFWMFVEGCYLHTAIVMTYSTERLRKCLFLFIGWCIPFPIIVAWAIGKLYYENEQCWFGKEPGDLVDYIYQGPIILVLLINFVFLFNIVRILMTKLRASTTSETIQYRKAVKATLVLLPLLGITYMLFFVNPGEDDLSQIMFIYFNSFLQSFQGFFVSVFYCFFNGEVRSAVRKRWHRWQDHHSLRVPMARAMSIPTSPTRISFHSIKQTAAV

Row | Binder | EC50 [nM], 0% HSA [nM] | EC50 [nM], 0.1% HSA [nM]
1 | B1 | 0.04 | 1.27
2 | B2 | 0.03 | 1.31
3 | B3 | 0.18 | –
4 | B4 | 0.03 | 0.97
